Reference: publication PMC2820766 (The Journal of Biological Chemistry, 2009)
Residue numbers refer to the chain shown, from its start. Numbers in names are those of the source.

B1: MscSΔW L105W (W16Y/W240F/W251F/L105W), small mechanosensitive channel MscS-H6 (natural protein)
chain: MEDLNVVDSINGAGSYLVANQALLLSYAVNIVAALAIIIVGLIIARMISNAVNRLMISRKIDATVADFLSALVRYGIIAFTLIAALGRVGVQTASVIAVLGAAGWAVGLALQGSLSNLAAGVLLVMFRPFRAGEYVDLGGVAGTVLSVQIFSTTMRTADGKIIVIPNGKIIAGNIINFSREPVRRNEFIIGVAYDSDIDQVKQILTNIIQSEDRILKDREMTVRLNELGASSINFVVRVFSNSGDLQNVYFDVLERIKREFDAAGISFPYPQMDVNFKRVKEDKAA
B2: MscSΔW L105W/A106V (W16Y/W240F/W251F/L105W/A106V), small mechanosensitive channel MscS-H6 (natural protein)
chain: B1 chain with A106V

Target: the molecule itself
Assay: SEC

Row | Protein | stoichiometry N
1 | B1 | 7
2 | B2 | 7
